Reference: patent publication US20230167501

Target: T1, PEG10 gag
T1 chain: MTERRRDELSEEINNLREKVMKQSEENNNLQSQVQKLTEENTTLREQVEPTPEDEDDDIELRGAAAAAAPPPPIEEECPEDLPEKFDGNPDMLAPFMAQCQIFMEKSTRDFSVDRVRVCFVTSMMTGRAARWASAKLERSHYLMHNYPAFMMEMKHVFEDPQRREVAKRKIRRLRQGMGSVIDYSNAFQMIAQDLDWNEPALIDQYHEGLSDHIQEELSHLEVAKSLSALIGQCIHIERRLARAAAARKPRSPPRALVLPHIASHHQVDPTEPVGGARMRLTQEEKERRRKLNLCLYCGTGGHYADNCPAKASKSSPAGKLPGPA

B1: PEG10 gag-pol (protein)
chain: MTERRRDELSEEINNLREKVMKQSEENNNLQSQVQKLTEENTTLREQVEPTPEDEDDDIELRGAAAAAAPPPPIEEECPEDLPEKFDGNPDMLAPFMAQCQIFMEKSTRDFSVDRVRVCFVTSMMTGRAARWASAKLERSHYLMHNYPAFMMEMKHVFEDPQRREVAKRKIRRLRQGMGSVIDYSNAFQMIAQDLDWNEPALIDQYHEGLSDHIQEELSHLEVAKSLSALIGQCIHIERRLARAAAARKPRSPPRALVLPHIASHHQVDPTEPVGGARMRLTQEEKERRRKLNLCLYCGTGGHYADNCPAKASKSSPAGKLPGPAVEGPSATGPEIIRSPQDDASSPHLQVMLQIHLPGRHTLFVRAMIDSGASGNFIDHEYVAQNGIPLRIKDWPILVEAIDGRPIASGPVVHETHDLIVDLGDHREVLSFDVTQSPFFPVVLGVRWLSTHDPNITWSTRSIVFDSEYCRYHCRMYSPIPPSLPPPAPQPPLYYPVDGYRVYQPVRYYYVQNVYTPVDEHVYPDHRLVDPHIEMIPGAHSIPSGHVYSLSEPEMAALRDFVARNVKDGLITPTIAPNGAQVLQVKRGWKLQVSYDCRAPNNFTIQNQYPRLSIPNLEDQAHLATYTEFVPQIPGYQTYPTYAAYPTYPVGFAWYPVGRDGQGRSLYVPVMITWNPHWYRQPPVPQYPPPQPPPPPPPPPPPPSYSTL
presence of HA-tagged cleavage products by western blot after co-transfection: PEG10 gag-pol was capable of cleaving PEG10 gag in trans
